Experimental data published in PMC3836802, “LOV Takes a Pick: Thermodynamic and Structural Aspects of the Flavin-LOV-Interaction of the Blue-Light Sensitive Photoreceptor YtvA from Bacillus subtilis” (PLoS ONE, 2013).

What was measured:
[1] = target: YtvA LOV domain 21-147 (Bacillus subtilis) (UniProt O34627); conditions: cited from earlier work
[2] = target: T1, YLOV (Apo-YLOV; LOV domain of YtvA, aa 1-128) (Bacillus subtilis, UniProt O34627, M1G); experiment: isothermal titration calorimetry; assay type: binding; conditions: 25 °C; 20 mM Tris-HCl pH 7.5, 150 mM NaCl, 500 µM TCEP; dark; apoprotein titrated into flavin; single-site global fit; brackets 95% confidence interval
T1 construct: gene pfyP; LOV domain with N-terminal cap, aa 1-128; apo form in monomer-dimer equilibrium; 15N-labelled for ITC
T1 sequence (O34627 1-128 M1G): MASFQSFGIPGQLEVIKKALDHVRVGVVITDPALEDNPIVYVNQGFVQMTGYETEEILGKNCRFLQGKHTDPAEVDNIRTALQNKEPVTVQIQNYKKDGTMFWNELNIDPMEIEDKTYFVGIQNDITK
Source text: isothermal titration calorimetry on YLOV (Apo-YLOV; LOV domain of YtvA, aa 1-128)

YtvA (Bacillus subtilis) = YtvA (Bacillus subtilis) (UniProt O34627); conditions: cited from earlier work
[3] = target: the molecule itself; experiment: AUC; sedimentation velocity, 45,000 rpm, 25 °C, absorbance at 280 nm; Apo-YLOV at 17.5, 35 and 70 µM in buffer G (20 mM Tris-HCl pH 7.5, 150 mM NaCl, 500 µM TCEP); c(S) analysis with Sedfit; dimer to monomers; the KD is called only an estimate
[4] = target: the molecule itself; experiment: AUC; sedimentation velocity, 45,000 rpm, 20 °C, absorbance at 280 nm; Apo-YtvA at 15, 30 and 60 µM in buffer H (20 mM K-phosphate pH 6.5, 50 mM NaCl, 5 mM DTT, 0.1% azide); c(S) analysis with Sedfit; dimer to monomers

Molecule: YtvA LOV domain 21-147 (from UniProt O34627)
- Kd [1]: < 200 nM

Molecule: Cc1cc2nc3c(=O)[nH]c(=O)nc-3n(C[C@H](O)[C@H](O)[C@H](O)COP(=O)(O)O)c2cc1C [FMN]
- Kd [2]: 715 nM

Molecule: YtvA (from UniProt O34627)
- Kd (YtvA (Bacillus subtilis)): < 300 nM

Molecule: Cc1cc2nc3c(=O)[nH]c(=O)nc-3n(C[C@H](O)[C@H](O)[C@H](O)COP(=O)(O)OP(=O)(O)OC[C@H]3O[C@@H](n4cnc5c(N)ncnc54)[C@H](O)[C@@H]3O)c2cc1C [FAD]
- Kd [2]: 224 nM

Molecule: Cc1cc2nc3c(=O)[nH]c(=O)nc-3n(C[C@H](O)[C@H](O)[C@H](O)CO)c2cc1C [RF]
- Kd [2]: 351 nM

B1: Apo-YLOV (deflavinated extended LOV domain of YtvA, aa 1 – 128) (domain or fragment, Bacillus subtilis, UniProt O34627 1-128, looked up)
chain: GASFQSFGIPGQLEVIKKALDHVRVGVVITDPALEDNPIVYVNQGFVQMTGYETEEILGKNCRFLQGKHTDPAEVDNIRTALQNKEPVTVQIQNYKKDGTMFWNELNIDPMEIEDKTYFVGIQNDITK
notes: YtvA, blue-light photoreceptor of Bacillus subtilis, residues 1-128 (N-terminal cap and LOV domain); TEV cleavage leaves a Gly at the N-terminus; the forward primer reads Gly-Ala-Ser-Phe-Gln, so the Gly stands in the place of Met1; also called YtvA-LOV domain; not shown: His tag, N-terminal, cleaved
- Kd [3]: ~14000 nM
- stoichiometry N [3]: 2

B2: Apo-YtvA (deflavinated full length YtvA, aa 1 – 261) (natural protein, Bacillus subtilis, UniProt O34627 1-261, looked up)
chain: GASFQSFGIPGQLEVIKKALDHVRVGVVITDPALEDNPIVYVNQGFVQMTGYETEEILGKNCRFLQGKHTDPAEVDNIRTALQNKEPVTVQIQNYKKDGTMFWNELNIDPMEIEDKTYFVGIQNDITKQKEYEKLLEDSLTEITALSTPIVPIRNGISALPLVGNLTEERFNSIVCTLTNILSTSKDDYLIIDLSGLAQVNEQTADQIFKLSHLLKLTGTELIITGIKPELAMKMNKLDANFSSLKTYSNVKDAVKVLPIM
notes: YtvA, blue-light photoreceptor of Bacillus subtilis, full length, residues 1-261 (LOV domain aa 21-126, Jα-helix aa 127-147, STAS domain aa 148-261); Met1 replaced by the Gly left after TEV cleavage; source: TEV cleavage; not shown: His tag, N-terminal, cleaved
- stoichiometry N [4]: 2
